These results are taken from patent publication US9095624.

Where only a bound is given, the exact number is not on record here.

The target of the experiment is EGFR receptors of A431 human epidermoid carcinoma cells (human) (UniProt P00533).

“DTox-HMP-NLS-EGF after refolding (from UniProt P00588 198-384; P24232 1-396; P01133 971-1023)”: the Ka came to 5.4e+13 M⁻¹ and the fold increase of affinity after refolding against before refolding was more than 2.8 fold.
